How the values were obtained:
[1] = biological target: human serum albumin (HSA) (human) (UniProt P02768); test: ELISA, HSA coated on plate, n = 3
[2] = biological target: mouse serum albumin (MSA) (mouse) (UniProt P07724); test: ELISA, MSA coated on plate, n = 3
UniProt P07724, sequence (P07724 25-608 limits assumed): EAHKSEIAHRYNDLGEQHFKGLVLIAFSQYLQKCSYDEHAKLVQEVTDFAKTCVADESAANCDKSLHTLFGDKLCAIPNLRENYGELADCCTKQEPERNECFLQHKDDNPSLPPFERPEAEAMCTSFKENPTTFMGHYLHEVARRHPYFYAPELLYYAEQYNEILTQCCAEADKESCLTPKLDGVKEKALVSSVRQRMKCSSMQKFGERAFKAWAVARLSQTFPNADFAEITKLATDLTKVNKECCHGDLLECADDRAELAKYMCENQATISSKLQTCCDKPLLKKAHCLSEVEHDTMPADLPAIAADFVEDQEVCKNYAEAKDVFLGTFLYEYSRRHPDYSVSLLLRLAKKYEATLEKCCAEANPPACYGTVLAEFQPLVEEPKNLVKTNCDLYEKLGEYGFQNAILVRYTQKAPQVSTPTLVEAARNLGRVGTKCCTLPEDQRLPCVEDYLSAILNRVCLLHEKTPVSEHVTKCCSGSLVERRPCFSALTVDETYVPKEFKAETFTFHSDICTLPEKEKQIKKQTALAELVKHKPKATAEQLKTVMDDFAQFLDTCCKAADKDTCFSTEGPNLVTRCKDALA

UniProt P02768, sequence (P02768 25-609 limits assumed): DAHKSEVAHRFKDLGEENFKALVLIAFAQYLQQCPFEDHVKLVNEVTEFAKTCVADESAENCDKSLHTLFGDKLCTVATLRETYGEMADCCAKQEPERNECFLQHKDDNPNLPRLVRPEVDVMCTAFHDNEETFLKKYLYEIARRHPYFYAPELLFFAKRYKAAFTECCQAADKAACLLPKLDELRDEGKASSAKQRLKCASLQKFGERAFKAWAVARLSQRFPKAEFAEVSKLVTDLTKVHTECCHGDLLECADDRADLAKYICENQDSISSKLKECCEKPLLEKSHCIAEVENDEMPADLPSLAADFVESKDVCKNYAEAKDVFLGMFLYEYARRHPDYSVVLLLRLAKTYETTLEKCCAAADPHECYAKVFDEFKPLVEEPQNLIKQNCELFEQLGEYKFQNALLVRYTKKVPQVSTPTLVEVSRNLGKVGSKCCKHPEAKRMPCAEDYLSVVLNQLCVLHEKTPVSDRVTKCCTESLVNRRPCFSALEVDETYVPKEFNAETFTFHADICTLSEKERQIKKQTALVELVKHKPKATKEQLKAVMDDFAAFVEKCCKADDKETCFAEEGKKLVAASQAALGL

With SS1-ABD-dsFv-PE38 (LMB-209) the Affinity [1] was 0.11 nM and the Affinity [2] was 0.16 nM.

Source: patent publication US20240132619A1
